Ends that are not written are not given here.

T2 sequence (P61769 21-119): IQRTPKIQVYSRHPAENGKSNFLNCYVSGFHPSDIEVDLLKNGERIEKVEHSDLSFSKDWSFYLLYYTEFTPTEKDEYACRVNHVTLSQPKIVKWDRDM
T2 sequence (P26715 94-233): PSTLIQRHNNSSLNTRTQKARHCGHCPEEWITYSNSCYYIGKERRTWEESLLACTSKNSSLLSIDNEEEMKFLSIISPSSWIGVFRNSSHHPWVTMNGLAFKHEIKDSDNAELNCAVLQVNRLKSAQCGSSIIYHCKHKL
T2 sequence (P13747 22-358): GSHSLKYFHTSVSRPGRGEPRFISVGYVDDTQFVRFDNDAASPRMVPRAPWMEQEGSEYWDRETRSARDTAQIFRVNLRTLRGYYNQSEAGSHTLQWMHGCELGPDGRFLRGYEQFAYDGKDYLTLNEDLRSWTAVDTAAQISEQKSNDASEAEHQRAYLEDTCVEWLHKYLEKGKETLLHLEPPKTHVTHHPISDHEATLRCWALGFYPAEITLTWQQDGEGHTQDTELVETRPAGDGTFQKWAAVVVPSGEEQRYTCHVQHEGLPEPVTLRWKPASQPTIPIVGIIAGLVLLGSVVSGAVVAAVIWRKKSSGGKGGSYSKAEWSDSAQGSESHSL
T2 sequence (Q13241 32-179): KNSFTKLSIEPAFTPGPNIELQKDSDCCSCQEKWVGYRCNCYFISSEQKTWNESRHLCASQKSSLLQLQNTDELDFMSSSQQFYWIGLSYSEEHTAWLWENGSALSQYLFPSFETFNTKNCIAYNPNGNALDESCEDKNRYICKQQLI

For one test, the target named is T1, sHLA-E*01:03 (Homo sapiens, UniProt P13747).
T1 construct: A soluble construct of HLA-E*01:03 was constructed by removing the transmembrane and cytoplasmic domains; expressed in transfected cells; host or cells: human U-373MG cells, uninfected or infected with CMV strain AD169
Briefly: Identification of peptides eluted from soluble HLA-E of CMV-infected vs uninfected U-373MG cells by immunoaffinity purification and LC-MS/MS. In kind it is binding. The note with it: number of spectra for the peptide, LC-MS/MS identification of HLA-E ligands (Table 1).
For the sequence SASSATACTSGVMT, the “# Spec” value was 439.
Still for that read-out and setting: the result for SASSATACTSGVMTR reads 439; that for SDEELVTTER, 406.
As for VTGGGAMAGASTSAGR, the “# Spec” value stood at 420.

Still in this test, the particulars now being: number of spectra found for the HCMV peptide listed as HLA-E ligand (Table 1).
In the case of APSQKSKRSVTVEQPSTSADGSN (7), the “# Spec” value was determined as 21.
Same read-out and setting: the result for AQGDDDVWTSGSDSDEELVTTER (85) reads 393; that for ARERGEFGDEDEEQEND (22), 351; that for ARERGEFGDEDEEQENDGEPR (21), 351.
On to DDDVWTSGSDSDEELVTTER (87), for which the “# Spec” value was determined as 396.
Take EAGGVGGSSGGGGGSGLLPAKRS (55): the “# Spec” value was 1211.
For GPGLDNDLMNEPMGLGGLGGGGGGGGKKH (43), the “# Spec” value came out at 312.
Regarding HRHLPVAD (82), the “# Spec” value amounted to 139.
Same read-out and setting: the same measure for “MDGDVRTAADISSTER (63) (MDGDVRTAADISSTLR)”: 519; for PATLTAYDK (57): 572.
For PNTYIHKTETD (60), the “# Spec” value is 221.
The same measure, in the same setting: the result for PTYDELPSRPPQ (4) reads 730; that for PVTGEDTFSAHGKSD (52), 615; that for RSVTVEQPSTSAD (9), 28.
In the case of SQKSKRSVTVEQPSTSAD (8), the “# Spec” value was found to be 23.
On the same count and under the same terms, the same measure for SSVSGVRTPR (17) (also: PTM present): 2; for SVPAPRPSPISTAST (72): “$35”.
On the same count and under the same terms, the same measure for SVTVEQPSTSA (12): 29; for VLGPISGHV (78): 14.
As for VLGPISGHVLK (79), the “# Spec” value turned out to be 14.
On the same count and under the same terms, the result for VRTAADISSTLR (67) reads 2.
In the case of VRTAADISSTLRSVPAPRPSP (66), the “# Spec” value stood at 3.
Turning to VRTAADISSTLRSVPAPRPSPISTA (68), the “# Spec” value was found to be 3.
Take VTFEFVPNTK (46): the “# Spec” value was 419.
VTVEQPSTSAD (13): the “# Spec” value was 30.
VWTSGSDSDEELVTTE (91): the “# Spec” value is reported as 399.

A further test has as its target T2, CD94-NKG2A (Homo sapiens, UniProt P13747+P26715+Q13241).
T2 construct: a linker into which cDNA encoding the extracellular domain of type II membrane proteins is inserted; Flag (N); CD8 leader (N); made in house; host or cells: 293T cells for the Fc fusion proteins; mouse RMA-S transfectants for HLA-E and B2M
Assay: not given
The conditions noted are these: peptide bound to HLA-E; cited from earlier work.
VMAPRTLFL [HLA-G leader peptide]: the “binding of HLA-E/peptide to CD94-NKG2A” value was “bind both CD94-NKG2A and CD94-NKG2C (albeit with low affinity)”.

Another test deals with T3, CD94-NKG2C (Homo sapiens, UniProt P13747+P26717+Q13241).
T3 construct: a linker into which cDNA encoding the extracellular domain of type II membrane proteins is inserted; Flag (N); CD8 leader (N); made in house; host or cells: 293T cells for the Fc fusion proteins; mouse RMA-S transfectants for HLA-E and B2M
T3 sequence (Q13241 32-179): as the sequence (Q13241 32-179) above
T3 sequence (P61769 21-119, further chain): as the sequence (P61769 21-119) above
T3 sequence (P13747 22-358): as the sequence (P13747 22-358) above
T3 sequence (P26717 94-231): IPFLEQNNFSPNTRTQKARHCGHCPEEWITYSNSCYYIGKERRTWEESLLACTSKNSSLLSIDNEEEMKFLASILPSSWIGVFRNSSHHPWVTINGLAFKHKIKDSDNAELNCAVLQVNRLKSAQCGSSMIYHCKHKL
Assay: not given
The conditions noted are these: peptide bound to HLA-E; cited from earlier work.
As for VMAPRTLFL [HLA-G leader peptide], the “binding of HLA-E/peptide to CD94-NKG2C” value was “bind both CD94-NKG2A and CD94-NKG2C (albeit with low affinity)”.

The record behind these values is US20240041994A1, “CMV VACCINE AND METHOD OF MAKING AND USING THE SAME” (priority 2017, published 2024).
